Tests used:
[1] = system: K4 kissing-loop RNA reporter; assay: apparent KD of K4 kissing-loop reporter; higher = weaker reporter binding; conditions: Eterna round: R107;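 note: bound reporter read as fluorescence of individual clusters on recovered sequencing chips by microscopy, with normalized cluster intensities fitted with a binding model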
Description: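 RNA-MaP round R107: designed RNA switches with theophylline, tryptophan, arginine or FMN aptamers are transcribed on-chip within common flanks. They are titrated with a labelled K4 kissing-loop RNA reporter in RNA-MaP buffer (100 mM Tris pH 7.5, 80 mM KCl, 4 mM MgCl2), without ligand or with the indicated ligand. Median apparent KD per design.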

[2] = system: MS2 coat protein; assay: apparent KD of MS2 coat protein; designed switch direction (-1 OFF switch, 1 ON switch): -1; higher = weaker reporter binding
In short: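 On Illumina chips, designed RNA switches with common flanks were made by stalled E. coli RNA polymerase. Titrations with SNAP-549-labelled MS2 coat protein, doubling from 0.7 or 1.5 nM to 3 µM, were done with no input, with 200 uM small-molecule ligand, or with an oligonucleotide input. Apparent KD is the median per design over clusters, from curve fits of normalised cluster fluorescence.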

[3] = input ligand: theophylline 20 uM
[4] = input ligand: tryptophan 2.4 mM
[5] = input ligand: microRNA oligo, concentration not stated
[6] = Eterna round: R95, input ligand: FMN 200 uM
[7] = Eterna round: R95, input ligand: microRNA oligo, concentration not stated
[8] = Eterna round: R95, input ligand: none

Sequence | apparent KD of K4 kissing-loop reporter ([1]; input ligand: FMN 200 uM) [nM] | apparent KD of K4 kissing-loop reporter ([1]; input ligand: arginine 13.2 mM) [nM] | apparent KD of K4 kissing-loop reporter ([1]; input ligand: none) [nM] | apparent KD of K4 kissing-loop reporter [1, 3] [nM] | apparent KD of K4 kissing-loop reporter [1, 4] [nM] | apparent KD of MS2 coat protein ([2]; input ligand: FMN 200 uM) [nM] | apparent KD of MS2 coat protein ([2]; input ligand: none) [nM] | also measured
GAGGUACAGGCGGCCGCCACUAGUGAUGUUAGUGAUGUUUGAUACUGUAUAUAUCGGCGUGUAGAUAGGACCGGGCCUGAUGGAG [znmkmullin] | 122 | 78.7 | 100 | 109 | 91.8 |  |  | 
UAAUAAAUUCCAGCGAUAUCGCUCUUCGAAGGAGCGGACGAAAGUCCAGGUAGGUCGCGGAGAGUGAUGUUCUUUGCGGCGCUGG [whbob_Ex_Arginine_A_2t133] | 450 | 177 | 356 | 298 | 266 |  |  | 
UGAUACCAGACUGAUACCAGCGAGUGAUGUUUGUUGAUCAUAAGCAGUCAAAGACUGCUUUGCCCUUGGCAGCAGUCUGGUAUCU [#11 K4 Theophylline B Exclusion] | 871 | 565 | 838 | 334 | 600 |  |  | 
UAGUGUCGCGCAGGAUAUACUGAUUGGAGUGAUGUUCCAAACAUGCACGUGUGACUUUUACAAGAAGUAGAAGGGCGUGAGACAU [Exclusion FMN B GF 22] | 303 | 200 | 184 | 198 | 179 |  |  | 
UUGUUAUGAUAAAAUCCUGUUUGAUAAAGACAGGAUAUAGAAAAUACUAGAAGGGUCAUUAUAUGCAGUGAUGUUGCAAAUAAGU [Exclusion FMN A Gf 22] | 41 | 60.8 | 38.4 | 55.1 | 35 |  |  | 
GUAGGAUGAGGAGGAGGAUGAAAUACUGAAGGAGCGCAGAGAAAUGCAGGUAGGUCGCGGUAAGGAAGUAUAGUGAUGUUAUAUA [#07 K4 Arginine A Same State] | 414 | 367 | 664 | 755 | 449 |  |  | 
UGAUACCAGACUGAUACCAGCUAGUGAUGUUAGCUGAUAAACAAACAGGCAAAGCCUGCUAGCCCUUGGCAGCAGUCUGGUAUCU [TheoBX 12 #SwitchBubble #StaticStem] | 206 | 180 | 193 | 359 | 202 |  |  | 
AAGCAGUCACCCGAAGCCAUCGAAGAUGGACGAGGACCGGUACGGCCGCCACUCGGAGUGAUGUUCCGAAGACUGCAAAAUAAAA | 269 | 272 | 302 | 304 | 412 |  |  | 
GCAGUGAUGUUGCUGAUGUACAGUGGGAUACGAGGACCGGUACGGCCGCCACUCGUACAGAACUUGUUAAUACAUCGAUAGGUGA [XIII] | 702 | 759 | 880 | 837 | 564 |  |  | 
CGGCUCUAUCCUAGUAUUAAGAGGGAGUUGCGAGGACCGGUACGGCCGCCACUCGAAGUAGUUUGGCCAGUGAUGUUGGUCUUAC [Qubeatonza] | 223 | 213 | 129 | 152 | 421 |  |  | 
ACUUGAGCACAUAGCACACCAAGCAGUAGGUAGGAUAUCCGGCUUAGGAGAAGGACCAUGCAGUGAUGUUGCAUGCUCCUCCAUG [Zaribies] | 258 | 95.8 | 76 | 92.3 | 99.9 |  |  | 
UGUACCGAGUCAGGAUAUGGCGUCGAAAGACGAAUGCUAGUGAUGUUAGGGAUCUGCGAAAGCAGUUCAGAAGGGACUUGGUACU [FmnBS 26 G36+U67] | 275 | 292 | 404 | 379 | 338 |  |  | 
AUUUUUUUGUCAGGAUAUUAGUGUGGGUUUGGUUUGUUAGUGAUGUUGAUAUUUGUUUUAUGUAUUUAAGAAGGGAUUUAGCGGU [zzdxemullin] | 556 | 330 | 431 | 443 | 285 |  |  | 
AAUAACAGAGGAUAUACUAUUUUAUGUGUUUGUUAUUUUGAACAUGAGGAUCACCCAUGUAGAAGGCUGAUUAA [JMF 49] (Eterna round: R96, puzzle: Exclusion 2) |  |  |  |  |  | 45.6 | 44.1 | apparent KD of MS2 coat protein [2, 5]: 35.2 nM
GGUUGGCGAGGAUAUACAUGAGGAUCACCCAUGUCAGAGAAAAAAGUGAGGAAGAAAAGUAGAAGGCGCUGACG [salish99_ex3_r3_017] (puzzle: Exclusion 3) |  |  |  |  |  |  |  | apparent KD of MS2 coat protein [2, 6]: 199 nM; apparent KD of MS2 coat protein [2, 7]: 210 nM; apparent KD of MS2 coat protein [2, 8]: 118 nM
AAGAAGCGAGGAUAUACAGGCGGCGACAUGAGGAUCACCCAUGUGGUGGCCCACGCCGUGGUAGAAGGCGUUAAAG [Ordiceinri] (Eterna round: R97, puzzle: Exclusion 5) |  |  |  |  |  | 228 | 245 | 
GCGGACAAGAUCGCGAGAUCAGAGACAUGAGGAUCACCCAUGUAGGAUAUCGAUUCGAAACGAAUCGAGAAGGGCAUAGUCCGC [JL denovo 5] (Eterna round: R96, puzzle: Exclusion NG 3) |  |  |  |  |  | 17.3 | 19.4 | apparent KD of MS2 coat protein [2, 5]: 11.6 nM
AAAUUGUGAGGAUAUUCGAUGAACACGGAGACGUGUUUAUCGGAGAAGGCACAUGAGGAUCACCCAUGUUCCUU [Mat - Exclusion 4 - JL Mod - D24] (Eterna round: R97, puzzle: Exclusion 4) |  |  |  |  |  | 80.4 | 16.3 | 

Sequence | apparent KD of K4 kissing-loop reporter ([1]; input ligand: FMN 200 uM) [nM] | apparent KD of K4 kissing-loop reporter ([1]; input ligand: arginine 13.2 mM) [nM] | apparent KD of K4 kissing-loop reporter ([1]; input ligand: none) [nM] | apparent KD of K4 kissing-loop reporter [1, 3] [nM] | apparent KD of K4 kissing-loop reporter [1, 4] [nM] | apparent KD of MS2 coat protein ([2]; input ligand: FMN 200 uM) [nM] | apparent KD of MS2 coat protein ([2]; input ligand: none) [nM] | also measured
ACGCAUUGCCUUUGGUAGUGCGUAACAUGAGGAUCACCCAUGUAGGAUAUGGUAGGCUUUGCUUACCAGAAGGACAUUAUAAAC [Mat - Exclusion NG 3 - Mod of JL - D9] (Eterna round: R96, puzzle: Exclusion NG 3) |  |  |  |  |  |  |  | apparent KD of MS2 coat protein [2, 5]: 21.9 nM
AGAUCACAUGAGGAUCACCCAUGUCAGGAUAUCUACAUUGAAGCUUCGGCUUCAAUGUAGAGAAGGGAUAAUUA [E1/4-B1] (Eterna round: R97, puzzle: Exclusion 1) |  |  |  |  |  | 119 | 62.2 | 
UUGUUGUAUGUAGGAUAUGCAUAUUGUUAUUAUGCAGAAGGACAUGAGGAUCACCCAUGUAUAUUAUUAUUAUAUAUUAUAUAU [Title] (Eterna round: R96, puzzle: Exclusion NG 1) |  |  |  |  |  |  |  | apparent KD of MS2 coat protein [2, 5]: 20.9 nM
AGCUGUGGCCGAGGAUAUCUAUCCCAAAUAACCGAAAUAUAAUCGGACAUGAGGAUCACCCAUGUAGAGAAGGCGGUCUCAGCA [Eli eng2 - 088] (Eterna round: R96, puzzle: Exclusion NG 2) |  |  |  |  |  |  |  | apparent KD of MS2 coat protein [2, 5]: 20.4 nM
GCAGCAUAGUAAACAUACUGUUACAUGAGGAUCACCCAUGUACAGGAUAUGGUCUGGAUUACAGGCCAGAAGGGUACAAGCUGC [Eli exng3 - 023] (Eterna round: R96, puzzle: Exclusion NG 3) |  |  |  |  |  | 8.36 | 12.8 | apparent KD of MS2 coat protein [2, 5]: 13 nM
UUGUACAUAGGAUAUAGUUGUUUGUACAUGAGGAUCACCCAUGUUAUGUAUCUUUUGCUUCUAGAAGGAUGUUCUU [JR_E5_Sub005] (puzzle: Exclusion 5) |  |  |  |  |  |  |  | apparent KD of MS2 coat protein [2, 7]: 32.2 nM
UUUUUGUGAGGAUAUGGAAUAUCUUCUAUUUAUUAUUAAUUCCAGAAGGCACAUGAGGAUCACCCAUGUAUUUU [Ex4 - 3 - 35] (puzzle: Exclusion 4) |  |  |  |  |  |  |  | apparent KD of MS2 coat protein [2, 7]: 20.7 nM
AGCUGUGGCCGAGGAUAUCACGAACCAUGGAAAACCAUGGAAACUCUACAUGAGGAUCACCCAUGUGAGAAGGCGGUCUCAGCA [Eli eng2 - 022] (Eterna round: R96, puzzle: Exclusion NG 2) |  |  |  |  |  | 87.7 | 35.2 | apparent KD of MS2 coat protein [2, 5]: 21.6 nM
CUCAGGGUGCAGGAUAUCAUGGGAUAUCCCACCUGAGAAGGGCGAACAUGAGGAUCACCCAUGUGAGUGGGAGA [Eternabot (L2) Solution 85] (Eterna round: R97, puzzle: Exclusion 6) |  |  |  |  |  | 488 | 441 | 
GCGACUGGAGGAUAUACAUGAGGAUCACCCAUGUGAUCUAAAAGGGUCUUAUGCCGGUGUAGAAGGCCGAGCAG [Eternabot (L2) Solution 84] (Eterna round: R97, puzzle: Exclusion 3) |  |  |  |  |  | 26.7 | 27.3 | 
GAUAGAGAGCAGGAUAUCUUGGGUAAGUAUCAUAGAGAAGGGCUCACAUGAGGAUCACCCAUGUGGUCCAAGAU [Dibira] (puzzle: Exclusion 6) |  |  |  |  |  |  |  | apparent KD of MS2 coat protein [2, 6]: 42.8 nM; apparent KD of MS2 coat protein [2, 7]: 13 nM; apparent KD of MS2 coat protein [2, 8]: 12.6 nM
CAUGUUUGUCGUUGAUCCAACAUGAGGAUCACCCAUGUCUCUUUAGCUUUUUGCUCGUCUUAUCCUCCUUUGUUCAC [JR_STOV1_v2_Sub0101] (Eterna round: R97, puzzle: Sensor, turn-off variant 1) |  |  |  |  |  | 65.5 | 401 | 
GCACGGAGUGUAGGAUAUCUGUGCGAUUAGCUCAGAGAAGGACACAUGAGGAUCACCCAUGUGUUCCAGCGAAAGCUUCCGUGC [Eli exng1 - 047] (Eterna round: R96, puzzle: Exclusion NG 1) |  |  |  |  |  | 8.15 | 10.6 | apparent KD of MS2 coat protein [2, 5]: 9.32 nM
ACAUGUAUUGCAGGAUAUGGGACACAUGAGGAUCACCCAUGUGACUACAUGUCAUACCACGCGUCUCAGAAGGGUAUGUACAUG [Ex NG2 #39] (Eterna round: R96, puzzle: Exclusion NG 2) |  |  |  |  |  | 27.7 | 21.5 | apparent KD of MS2 coat protein [2, 5]: 14 nM
UGAACCCAUGUUAGGAUAUCAGGCCGAGGAAGUUCUGAGAAGGGACAUGAGGAUCACCCAUGUAUAAAAGAAAC [Veontiinge] (puzzle: Brourd's mod of Exclusion 4) |  |  |  |  |  |  |  | apparent KD of MS2 coat protein [2, 7]: 63.6 nM
AGCGAGGCAGGAUAUACAUGAGGAUCACCCAUGUGCUUGUAUGGCGUGGAACAUCGUAGUAGAAGGGCCGCGCC [EX3 #77] (Eterna round: R97, puzzle: Exclusion 3) |  |  |  |  |  | 28.4 | 22.2 | 
CGUCUGUAAGGAUAUGGUUACAUAGACAUGAGGAUCACCCAUGUUACGUGGGACUAGUGAUUAGAAGGUACGAACG [EX5 #67] (Eterna round: R97, puzzle: Exclusion 5) |  |  |  |  |  | 54.7 | 51.2 | 
GGUUAUUGCAAGGAUAUGCUUAUUUGAGAAAUUGCAGAAGGUGCAACAUGAGGAUCACCCAUGUUGGAUGGGUU [JR_E6_Sub016] (puzzle: Exclusion 6) |  |  |  |  |  |  |  | apparent KD of MS2 coat protein [2, 7]: 60.7 nM

— the supplement of paper PMC9170038
